The assay concerns the target T1, human Fibroblast Activation Protein (FAP), soluble recombinant antigen (human, UniProt Q12884 26-760, biotinylated for BLI and panning (sites not given)).
T1 construct: also called biotinylated FAP (Sino Biological); soluble FAP antigen
T1 sequence: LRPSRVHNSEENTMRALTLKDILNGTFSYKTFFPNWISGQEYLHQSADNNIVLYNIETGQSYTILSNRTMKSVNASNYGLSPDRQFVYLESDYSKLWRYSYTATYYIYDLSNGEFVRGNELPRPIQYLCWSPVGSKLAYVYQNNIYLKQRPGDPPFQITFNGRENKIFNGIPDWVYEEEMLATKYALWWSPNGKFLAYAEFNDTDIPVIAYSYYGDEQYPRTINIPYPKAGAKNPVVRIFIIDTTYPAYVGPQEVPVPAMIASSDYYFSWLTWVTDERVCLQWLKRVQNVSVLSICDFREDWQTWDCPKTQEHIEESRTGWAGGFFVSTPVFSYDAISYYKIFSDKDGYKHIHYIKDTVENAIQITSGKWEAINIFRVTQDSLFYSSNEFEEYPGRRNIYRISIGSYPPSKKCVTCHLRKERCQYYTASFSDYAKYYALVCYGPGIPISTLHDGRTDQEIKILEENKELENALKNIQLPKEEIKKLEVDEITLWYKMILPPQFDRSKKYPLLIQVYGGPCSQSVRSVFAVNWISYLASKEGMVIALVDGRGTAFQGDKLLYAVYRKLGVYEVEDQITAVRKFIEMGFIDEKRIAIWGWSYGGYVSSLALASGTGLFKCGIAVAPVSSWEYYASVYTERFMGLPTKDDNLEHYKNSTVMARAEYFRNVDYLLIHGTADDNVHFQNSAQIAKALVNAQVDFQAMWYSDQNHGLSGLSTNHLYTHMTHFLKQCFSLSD
Nature of the assay: BLI (Gator), biotinylated FAP on streptavidin sensor.

Numbering of substitutions follows the chain as printed. A value given as a limit tells only on which side of the number the result lay.

The source of these data is patent US20240390506A1 (SUZHOU FUSE BIOSCIENCES, published 2024).

B1: 872-5 (antibody, V domains shown)
VH: EVQLVESGGGLVQPGGSLRLSCAASGFTFRGYIMSWVRQAPGKGLEWVSWISPEGSRTGYADSVKGRFTISRDNSKNTLYLQMNSLRAEDTAVYYCARLQYGTWFDYWGQGTLVTVSS
VL: DIQMTQSPSSLSASVGDRVTITCRASQSISSYLNWYQQKPGKAPKLLIYAASSLQSGVPSRFSGSGSGTDFTLTISSLQPEDFATYYCQQATLLLPTFGQGTKVEIKR
Consider B1, for which the Kd amounted to 6.6 nM, the koff is 0.0028 s⁻¹ and the on-rate constant (kon) came out at 420000 M⁻¹ s⁻¹.

B2: 872-59 (antibody, V domains shown)
VH: EVQLVESGGGLVQPGGSLRLSCAASGFTFTSYAMSWVRQAPGKGLEWVSSIYSWYGTTSYADSVKGRFTISRDNSKNTLYLQMNSLRAEDTAVYYCARTISYSQYAYGYSFDYWGQGTLVTVSS
VL: B1 VL with T92F, L93T, L94S, L95P, P96R
Regarding B2, the dissociation constant Kd was found to be 15.5 nM, the off-rate (koff) came to 0.0056 s⁻¹ and the on-rate constant (kon) was determined as 360000 M⁻¹ s⁻¹.

B3: 872-70 (antibody, V domains shown)
VH: EVQLVESGGGLVQPGGSLRLSCAASGFTFSRYSMSWVRQAPGKGLEWVSYITSTDGTTDYADSVKGRFTISRDNSKNTLYLQMNSLRAEDTAVYYCARSQYGRYYSPDYYFDYWGQGTLVTVSS
VL: B1 VL with A91S, T92R, L93T, L94S, L95P, P96Y
For the molecule B3, the dissociation constant (Kd) is under 1 nM and the kon was found to be 110000 M⁻¹ s⁻¹.
